Assay results from paper PMC9871958.

Target: SARS-CoV-2 spike ectodomain (S-trimer) (SARS-CoV-2) (UniProt P0DTC2)
Experiment: cryo-EM structure

SARS-CoV-2 spike ectodomain (S-trimer) (from UniProt P0DTC2 14-1213) (complex)
stoichiometry N: 3
